From patent publication US12636342B2, “TARS derived from Akkermansia muciniphila or fragment thereof, and use thereof” (KOREA RESEARCH INSTITUTE OF BIOSCIENCE AND BIOTECHNOLOGY, priority 2020, dated 2026) come the findings set out here.

Series [1] deals with T1, TLR4 (Homo sapiens, UniProt O00206).
T1 construct: FLAG (C); expressed in transfected cells; host or cells: HEK 293T
Nature of the series: Pull-down assay with TLR4 in HEK 293T cells. Conditions: Strep-AmTARS and TLR4-FLAG. The series is classed as binding. The text has this:
(A) AmTARS-interacting candidates identified from membrane protein interactome analysis. Potential interactors (receptors) involved in innate immunity are indicated in red. (B-D) Pull-down of Strep-AmTARS co-expressed with NLRX1-FLAG (B), CD163-FLAG (C), and TLR4-FLAG (D) in HEK 293T cells. Data shown are representative of three independent experiments, each with similar results.
Then, Strep-tagged AmTARS, AmTARS having deletions of two functional site (AmTARSΔ1Δ2), and FLAG-tagged TLR2 were transduced into human-derived HEK 293T cells through PEI, and thereafter, the cells were lysed using a lysis buffer containing 50 mM Tris-HCl (pH 7.5), 100 mM NaCl, 1% NP-40, 1 mM EDTA, 0.25% Na-deoxycholate, and a protease inhibitor cocktail. The cell lysates each were incubated with Strep Tactin beads and washed with a buffer containing 137 mM NaCl, 2.7 mM KCl, 10 mM Na2HPO4, 1.8 mM KH2PO4, and 1 mM EDTA, and proteins attached to the beads were eluted and analyzed by immunoblotting.

Series [2] deals with mouse bone marrow-derived macrophages (BMDMs). Nature of the series: ELISA of immune cytokine secretion in BMDMs under normal conditions. The series is classed as cell-based. Conditions: normal (non-inflammatory) conditions, 24 h. Put shortly: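 Mouse BMDMs from femur and tibia were cultured in DMEM with 10% FBS. Cells were treated with AmTARS at 0.1, 0.2 or 0.5 μM for 24 h. Cell-free supernatants were assayed by ELISA for mouse IL-6, IL-10 and TNF-α.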
A general note: ELISA stands for enzyme-linked immunosorbent assay.

The subject of series [3] is human macrophages (THP1). The series is described as follows: ELISA of immune cytokine secretion in THP1 under normal conditions. The following applies: THP1, 0.1, 0.2, 0.5 μM, 24 h. The series is classed as cell-based. The procedure: Specifically, mouse bone marrow-derived macrophages (BMDMs) as mouse-derived immune cells were extracted from the mouse thighbone and shinbone, and then cultured in DMEM containing 10% fetal bovine serum (FBS) and antibiotics. Human macrophages (THP1) as human-derived immune cells were cultured in RPMI media containing 10% FBS and antibiotics.
The cultured cells were treated with AmTARS at 0.1 μM, 0.2 μM, and 0.5 μM for 24 h to obtain cell cultures. For cell removal, the media were centrifuged at 500×g for 10 min to obtain supernatants, which were then analyzed using an ELISA set (mouse interleukin (IL)-6, mouse IL-10, mouse tumor necrosis factor (TNF)-α, human IL-6, human IL-10, human TNF-α; BD Biosciences) to investigate the secretion of mouse- and human-derived immune cytokines.

Series [4] concerns BMDMs. Nature of the series: Global gene expression profiling (RNA sequencing) of BMDMs. The series is classed as cell-based, mouse. The following applies: GSEA (Enrichr). The procedure: (A-E) Global gene expression analysis. Total mRNA from BMDMs treated with either AmTARS (0.5 μM) or Pam3 (10 ng ml-1) for 1 or 3 h was isolated and analyzed by RNA sequencing (A). Principle components analysis (PCA) of the gene expression profiles for each sample (B). Hierarchical clustering of gene expression profiles from each sample identified cluster 3 and 4 (C). Gene set enrichment analysis (GSEA) of clusters 3 and 4 with respect to terms related to inflammation (D). […] (F) Overview of the experimental procedures for zebrafish. The yolk of Tg (NFκB:EGFP) transgenic zebrafish larvae (3 dpf) was injected with PBS or AmTARS. Injected larvae were treated at 3 and 5 dpf with 0.5% DSS for 24 h, with a washing period with fresh water for 24 h in between. Sample collection and analysis of Tg (NFκB:EGFP)-based EGFP intensity were conducted at 6 dpf. (G) Representative confocal images showing NF-κB signaling in the mid-distal intestines of PBS- or AmTARS-injected larvae with or without DSS treatment. White dashed lines denote the boundaries of the intestines (based on merged DIC bright field images). (H) Bar graph comparing the fluorescence intensity of the mid-distal intestines of PBS- or AmTARS-injected larvae treated (or not) with DSS (n=32 per PBS group and n=35 per DSS group). (I) Schematic model of the role of AmTARS in maintaining immune homeostasis via TLR2-mediated anti-inflammatory signaling pathways. Data shown in (A-C) are representative and repeated twice. Data shown in (H) are representative of three independent experiments, each similar results (mean±SEM). P-values were calculated by unpaired and two-tailed Student's t-test.
We next performed global gene expression profiling of BMDMs treated with AmTARS or Pam3 for 1 or 3 h (FIG. 32A). […] Subsets of genes showing different expression patterns between AmTARS and Pam3 were classified into six clusters by hierarchical clustering analysis (FIGS. 33A and 33B). The gene expression pattern at 3 h was particularly different for clusters 3 and 4 (FIGS. 32C, 33A, and 33B). […]

The subject of series [5] is TLR2-KO mice with DSS-induced colitis. Nature of the series: DSS-induced colitis in TLR2-deficient mice. The series is classed as in vivo, mouse. The procedure: We assessed the role of TLR2 in AmTARS function in vivo. To verify whether the binding between AmTARS and TLR2 actually acted on the anti-inflammatory effect of AmTARS, an inflammatory bowel disease mouse model was prepared from TLR2-deficient mice by way of the same method as in Example 5 and investigated for anti-inflammatory efficacy after the administration of AmTARS. TLR2-KO mice were slightly more susceptible to DSS-induced colitis than WT mice, as reported previously (Rakoff-Nahoum et al., 2004).

The test system of series [6] is BMDMs. Nature of the series: M2 macrophage polarization in BMDMs (CD206 flow cytometry). Format: cell-based, mouse. The procedure:
Since M2 macrophage polarization precedes production of anti-inflammatory cytokines such as IL-10, we assessed the effects of AmTARS on macrophage polarization. BMDMs were treated with PBS (negative control), LPS (to induce M1 polarization), or IL-4/IL-13 (to induce M2 polarization [positive control]) in the absence and presence of AmTARS, and the resulting M2 macrophage population was measured by flow cytometry using an antibody specific for the M2 macrophage surface marker CD206.
A general note: Flow cytometry measures light scatter and fluorescence of single cells or particles in a stream.

“Also recorded” adds a separate entry of the source.

T1 sequence (O00206 24-839): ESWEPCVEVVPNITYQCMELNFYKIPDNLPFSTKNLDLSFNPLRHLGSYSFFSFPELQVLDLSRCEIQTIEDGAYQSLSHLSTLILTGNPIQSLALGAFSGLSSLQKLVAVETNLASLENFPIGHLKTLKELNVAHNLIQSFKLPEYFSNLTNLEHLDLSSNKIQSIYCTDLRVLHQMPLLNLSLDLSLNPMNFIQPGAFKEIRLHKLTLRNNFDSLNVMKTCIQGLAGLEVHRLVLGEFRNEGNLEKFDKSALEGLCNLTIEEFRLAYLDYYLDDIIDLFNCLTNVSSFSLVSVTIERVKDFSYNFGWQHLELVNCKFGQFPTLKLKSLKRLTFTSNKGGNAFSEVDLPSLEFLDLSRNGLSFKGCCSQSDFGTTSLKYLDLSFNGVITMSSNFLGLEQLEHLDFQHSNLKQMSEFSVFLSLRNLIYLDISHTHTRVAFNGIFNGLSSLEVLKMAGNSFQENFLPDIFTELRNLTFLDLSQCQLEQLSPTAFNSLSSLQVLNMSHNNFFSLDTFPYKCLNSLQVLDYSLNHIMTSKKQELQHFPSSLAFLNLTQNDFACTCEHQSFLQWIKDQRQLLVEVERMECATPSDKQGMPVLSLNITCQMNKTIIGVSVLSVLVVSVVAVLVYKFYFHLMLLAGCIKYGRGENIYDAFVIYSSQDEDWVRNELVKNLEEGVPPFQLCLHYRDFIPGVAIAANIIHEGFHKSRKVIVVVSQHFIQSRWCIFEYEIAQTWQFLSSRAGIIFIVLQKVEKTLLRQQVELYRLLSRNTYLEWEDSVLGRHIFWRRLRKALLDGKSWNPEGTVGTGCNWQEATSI

B1: Akkermansia muciniphila-derived threonyl-tRNA synthetase (TARS) (protein)
chain: MSEHKERKTLEERQQMSDLERLRHSCAHVLATAICRLWPDAQLAGGPAVDNGFYYDVELDHRISTEDFERIEEEMKKVVKENQVFQKEVISRADAMKMAESGELGALGPRSEPSRFKIDLLNDIPEDEEISLYRNGDFTDLCAGPHVGRTGNCKAFKIMSVASAFYKGDKNRPMLQRIYGTCFPNRTQLDEHLERLEEARRRDHRKLGRELGLFCIDESVGQGLILWKPKGALIRRSLQDFITEELDKLGYSQVYTPNIGKLDLYRTSGHFPYYQESQYAPIPERDAMEKLSQEGASCAELFNGLATGTIEGYMLKPMNCPHHIKIYANDAHSYRDLPVRLAEFGTVYRWEQSGELGGMTRVRGFTQDDAHIFCTPDQLAGEIRQCLGIVKTIFGTLGMTDYRVRLSMRDPESDKYVGSPENWDKAEQALREAAEWLGADYSEEAGEAAFYGPKIDFIVRDAIGREWQLGTVQVDYNLPERFDLHYTGADNKPHRPVMVHRAPFGSMERFTGLLIEHFEGKFPTWLSPEQVRVLPISDKVTDVAAAHRTALAARGVRVTVDETPDKIGAKIRNARLDRVPYMLVLGQREAEDGTVSVRHRDKGDLGAMPFEQFADLVAREIAERHISPVI
modifications: Akkermansia muciniphila TARS
B1: in series [1], the “interaction with TLR4 (pull-down)” value is listed as “no interaction”. In addition, in series [2], the “secretion/production of IL-6” value is given as “not secreted; also recorded: no effect”, the “secretion/production of IL-10” value is given as “increased in a dose-dependent manner; also recorded: significant increase; also recorded: induced production; also recorded: specific to AmTARS” and the “secretion/production of TNF-α” value is reported as “not secreted; also recorded: no effect”. In series [3], the “secretion of IL-6” value is recorded as “not secreted”, the “secretion of IL-10” value is given as “increased in a dose-dependent manner” and the “secretion of TNF-α” value was “not secreted”. Moreover, in series [4], the “transcription factors associated with up-regulated genes” value is on record as “up-regulation of the anti-inflammation-related transcription factor CREB”. Further, in series [5] (TLR2-KO mice), the “colitis-induced body weight loss” value is listed as “did not improve” and the disease activity score entry is on record as “did not improve”. Further, in series [5] (TLR2-deficient mice), the “B cells in the colon” value was “did not show efficacy of increasing B cells in the colon” and the “amount of IgA” value was “a significant change in the amount of IgA could not be observed”. For the same molecule, in series [5] (colitis TLR2-KO mice), the “increase in IL-10-secreting macrophage numbers” value is listed as “did not induce” and the “reduction in pro-inflammatory monocyte numbers” value was “did not induce”. Besides, the “M2 polarization (CD206+)” value in series [6] (LPS-treated BMDMs (M1 polarization)) is recorded as “significantly re-polarized LPS-induced M1 macrophages to M2 macrophages”. The “M2 polarization (CD206+)” value in series [6] (PBS-treated BMDMs) was “activated M2 polarization”.
